Earlier results on 1 substance are cited in PMC4773801.

One may read the Kd as the free concentration of one partner at which half of the binding sites on the other are occupied at equilibrium, for simple one-to-one binding.

For the data set, the target named is bee venom group III sPLA2 (Apis mellifera) (UniProt P00630).
Sequence of UniProt P00630 (P00630 34-167): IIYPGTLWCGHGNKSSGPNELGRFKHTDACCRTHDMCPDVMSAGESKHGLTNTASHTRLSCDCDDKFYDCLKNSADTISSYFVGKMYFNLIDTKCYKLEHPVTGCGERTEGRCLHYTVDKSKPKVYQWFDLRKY

As for “mannose receptor CD206 (from UniProt P22897)”, the Kd was 4.79 µM.
